Measurements from PMC11986948, “The carboxylesterase AtCXE12 converts volatile (Z)-3-hexenyl acetate to (Z)-3-hexenol in Arabidopsis leaves” (Plant Physiology, 2025).

B1: AtCXE5 (Arabidopsis thaliana) (protein)
chain: MESEIASEFLPFCRIYKDGRVERLIGTDTIPASLDPTYDVVSKDVIYSPENNLSVRLFLPHKSTKLTAGNKLPLLIYIHGGAWIIESPFSPLYHNYLTEVVKSANCLAVSVQYRRAPEDPVPAAYEDVWSAIQWIFAHSNGSGPVDWINKHADFGKVFLGGDSAGGNISHHMAMKAGKEKKLDLKIKGIAVVHPAFWGTDPVDEYDVQDKETRSGIAEIWEKIASPNSVNGTDDPLFNVNGSGSDFSGLGCDKVLVAVAGKDVFVRQGLAYAAKLEKCEWEGTVEVVEEEGEDHVFHLQNPKSDKALKFLKKFVEFIIG
B2: AtCXE12 (Arabidopsis thaliana) (protein)
chain: MDSEIAVDCSPLLKIYKSGRIERLMGEATVPPSSEPQNGVVSKDVVYSADNNLSVRIYLPEKAAAETDSKLPLLVYFHGGGFIIETAFSPTYHTFLTTSVSASNCVAVSVDYRRAPEHPISVPFDDSWTALKWVFTHITGSGQEDWLNKHADFSRVFLSGDSAGANIVHHMAMRAAKEKLSPGLNDTGISGIILLHPYFWSKTPIDEKDTKDETLRMKIEAFWMMASPNSKDGTDDPLLNVVQSESVDLSGLGCGKVLVMVAEKDALVRQGWGYAAKLEKSGWKGEVEVVESEGEDHVFHLLKPECDNAIEVMHKFSGFIKGGN

Experiments:
Assay in all cases: GC-MS of (Z)-3-hexenol formed, Michaelis-Menten fit
Type in all cases: biochemical, Arabidopsis thaliana
Details in all cases: 50 mM Tris-HCl pH 7.5, 30 °C, 10 min, 0.5 µM enzyme
[1] = substrate: CC/C=C\CCOC(C)=O
From the text: (§1) GC-MS of (Z)-3-hexenol formed, Michaelis-Menten fit on AtCXE5

[2] = substrate: CC/C=C\CCOC(=O)CCC
From the text: as §1

[3] = substrate: CC/C=C\CCOC(=O)CC
From the text: as §1

[4] = substrate: CC/C=C\CCOC(C)=O; remark: listed apart in the source
From the text: (§2) GC-MS of (Z)-3-hexenol formed, Michaelis-Menten fit on AtCXE12

[5] = substrate: CC/C=C\CCOC(=O)CCC; remark: listed apart in the source
From the text: as §2

[6] = substrate: CC/C=C\CCOC(=O)CC; remark: listed apart in the source
From the text: as §2

Protein	Km [1]	kcat [1]	kcat/Km [1]	Km [2]	kcat [2]	kcat/Km [2]	Km [3]	kcat [3]	kcat/Km [3]	Km [4]	kcat [4]	kcat/Km [4]	Km [5]	kcat [5]	kcat/Km [5]	Km [6]	kcat [6]	kcat/Km [6]
B1	8630 ± 1280 µM	3.17 s⁻¹	380 M⁻¹ s⁻¹	240 ± 30 µM	0.16 s⁻¹	650 M⁻¹ s⁻¹	1450 ± 190 µM	0.3 s⁻¹	210 M⁻¹ s⁻¹	–	–	–	–	–	–	–	–	–
B2	–	–	–	–	–	–	–	–	–	5940 ± 840 µM	3.78 s⁻¹	640 M⁻¹ s⁻¹	460 ± 50 µM	0.85 s⁻¹	1860 M⁻¹ s⁻¹	2260 ± 340 µM	2.25 s⁻¹	990 M⁻¹ s⁻¹
